Our source for the relative binding activity values is patent publication US20140105889A1 (published 2014).

T1: human FcγRIIa type H (human, UniProt P12318 36-217)
T1 construct: also called FcgRIIaH; FcγRIIa(H)
T1 sequence: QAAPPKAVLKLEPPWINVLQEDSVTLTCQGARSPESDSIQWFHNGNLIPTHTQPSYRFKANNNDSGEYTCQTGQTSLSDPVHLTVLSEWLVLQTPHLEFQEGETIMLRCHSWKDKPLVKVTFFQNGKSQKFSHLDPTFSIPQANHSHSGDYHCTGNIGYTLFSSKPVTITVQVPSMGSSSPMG

T2: human FcγRIIb (human, UniProt P31994 43-217)
T2 construct: also called FcgRIIb; FcγIIB
T2 sequence: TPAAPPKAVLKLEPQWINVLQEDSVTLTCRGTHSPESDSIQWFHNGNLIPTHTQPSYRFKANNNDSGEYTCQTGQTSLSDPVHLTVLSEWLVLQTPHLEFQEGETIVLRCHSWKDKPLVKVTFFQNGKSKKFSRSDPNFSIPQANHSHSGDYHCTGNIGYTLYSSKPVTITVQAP

T3: human FcγRIIa type R (human, UniProt P12318 36-217)
T3 construct: also called FcgRIIaR; FcγRIIa(R)
T3 chain: T1 sequence with H133R

B1: IL6R-BP086/IL6R-L (antibody, human IgG1)
heavy: QVQLQESGPGLVKPSETLSLTCAVSGHSISHDHAWSWVRQPPGEGLEWIGFISYSGITNYNPSLQGRVTISRDNSKNTLYLQMNSLRAEDTAVYYCARSLARTTAMDYWGEGTLVTVSSASTKGPSVFPLAPSSKSTSGGTAALGCLVKDYFPEPVTVSWNSGALTSGVHTFPAVLQSSGLYSLSSVVTVPSSSLGTQTYICNVNHKPSNTKVDKKVEPKSCDKTHTCPPCPAPELLGGDSVFLFPPKPKDTLMISRTPEVTCVVVDVSHEDPEVKFNWYVDGVEVHNAKTKPREEQYNSTYRVVSVLTVLHQDWLNGKEYKCKVSNAALPKPIEKTISKAKGQPREPQVYTLPPSRDELTKNQVSLTCLVKGFYPSDIAVEWESNGQPENNYKTTPPVLDSDGSFFLYSKLTVDKSRWQQGNVFSCSVMHEALHNHYTQESLSLSP
light: DIQMTQSPSSLSASVGDRVTITCRASQDISSYLNWYQQKPGKAPKLLIYYTSRLHSGVPSRFSGSGSGTDFTFTISSLQPEDIATYYCQQGNTLPYTFGQGTKVEIK
B2: IL6R-BP177/IL6R-L (antibody, human IgG1)
heavy: B1 heavy with E235D, L236Y, G239D, P273G, A328D
light: B1 light
B3: IL6R-BP150/IL6R-L (antibody, human IgG1)
heavy: B1 heavy with L236Y, G239D, K332R
light: B1 light
B4: IL6R-BP148/IL6R-L (antibody, human IgG1)
heavy: B1 heavy with E235D, L236Y, G239D
light: B1 light
B5: IL6R-BP180/IL6R-L (antibody, human IgG1)
heavy: B1 heavy with G239D, P273G, A328K
light: B1 light
B6: IL6R-BP149/IL6R-L (antibody, human IgG1)
heavy: B1 heavy with E235D, L236Y, G239D, Y298D
light: B1 light
B7: IL6R-BP132/IL6R-L (antibody, human IgG1)
heavy: B1 heavy with E235D
light: B1 light
B8: IL6R-BP089/IL6R-L (antibody, human IgG1)
heavy: B1 heavy with L236Y
light: B1 light
B9: IL6R-BP133/IL6R-L (antibody, human IgG1)
heavy: B1 heavy with E235D, L236Y, A328K
light: B1 light
B10: IL6R-BP087/IL6R-L (antibody, human IgG1)
heavy: B1 heavy with L236Y, A328K
light: B1 light
B11: IL6R-BP144/IL6R-L (antibody, human IgG1)
heavy: B1 heavy with G239D, K332A
light: B1 light
B12: IL6R-BP129/IL6R-L (antibody, human IgG1)
heavy: B1 heavy with E235D, Y298D, A328K
light: B1 light
B13: IL6R-BP145/IL6R-L (antibody, human IgG1)
heavy: B1 heavy with L236Y, G239D, A328K, K332A
light: B1 light
B14: IL6R-BP179/IL6R-L (antibody, human IgG1)
heavy: B1 heavy with G239D, P273G
light: B1 light
B15: IL6R-BP088/IL6R-L (antibody, human IgG1)
heavy: B1 heavy with G239D
light: B1 light
B16: IL6R-BP184/IL6R-L (antibody, human IgG1)
heavy: B1 heavy with E235D, P273G, A328K
light: B1 light
B17: IL6R-BP183/IL6R-L (antibody, human IgG1)
heavy: B1 heavy with E235D, L236Y, P273G
light: B1 light
B18: IL6R-BP143/IL6R-L (antibody, human IgG1)
heavy: B1 heavy with L236Y, K332A
light: B1 light

Positions count from the first letter of the chain named.

T5 sequence (P12314 16-292 limits assumed): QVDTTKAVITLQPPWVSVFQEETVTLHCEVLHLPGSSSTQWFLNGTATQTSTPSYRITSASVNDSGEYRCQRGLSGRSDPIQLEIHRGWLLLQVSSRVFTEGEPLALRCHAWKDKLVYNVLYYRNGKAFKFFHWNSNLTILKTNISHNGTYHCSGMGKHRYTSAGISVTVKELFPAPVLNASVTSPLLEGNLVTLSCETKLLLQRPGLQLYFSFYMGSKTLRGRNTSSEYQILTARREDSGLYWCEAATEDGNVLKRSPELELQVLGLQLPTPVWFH

One experiment deals with T1, human FcγRIIa type H. Kind of experiment: SPR (Biacore), FcγR over captured antibody; binding amount / that of IL6R-BF648/IL6R-L x100.
Method: (§1) According to the following method, relative binding activities were calculated for the results of analyzing interactions with the respective FcγRs.
In the case of B1, the relative binding activity is 116 % of IL6R-BF648/IL6R-L.
The same measure, in the same setting: with B2 the figure was 409 % of IL6R-BF648/IL6R-L.
In the case of B3, the relative binding activity is 770 % of IL6R-BF648/IL6R-L.
As for B4, the relative binding activity is 462 % of IL6R-BF648/IL6R-L.
The same measure, in the same setting: with B5 the figure was 203 % of IL6R-BF648/IL6R-L.
On to B6, for which the relative binding activity was 401 % of IL6R-BF648/IL6R-L.
On the same count and under the same terms, with B7 the figure was 130 % of IL6R-BF648/IL6R-L; with B8, 186 % of IL6R-BF648/IL6R-L.
The same measure, in the same setting: in the case of B9 it was 151 % of IL6R-BF648/IL6R-L.
On the same count and under the same terms, with B10 the figure was 179 % of IL6R-BF648/IL6R-L; with B11, 108 % of IL6R-BF648/IL6R-L; with B12, 98 % of IL6R-BF648/IL6R-L.
For B13, the relative binding activity is 224 % of IL6R-BF648/IL6R-L.
The same measure, in the same setting: in the case of B14 it was 226 % of IL6R-BF648/IL6R-L; in that of B15, 166 % of IL6R-BF648/IL6R-L; in that of B16, 131 % of IL6R-BF648/IL6R-L.
The same measure, in the same setting: with B17 the figure was 191 % of IL6R-BF648/IL6R-L; with B18, 143 % of IL6R-BF648/IL6R-L.

A further experiment has as its target T2, human FcγRIIb. The experiment is described as above.
Method: as §1
Turning to B1, the relative binding activity is 137 % of IL6R-BF648/IL6R-L.
Still for that read-out and setting: with B2 the figure was 177 % of IL6R-BF648/IL6R-L; with B3, 183 % of IL6R-BF648/IL6R-L; with B4, 176 % of IL6R-BF648/IL6R-L.
On the same count and under the same terms, with B5 the figure was 179 % of IL6R-BF648/IL6R-L.
Same read-out and setting: with B6 the figure was 173 % of IL6R-BF648/IL6R-L.
As to B7, the relative binding activity is 150 % of IL6R-BF648/IL6R-L.
Same read-out and setting: in the case of B8 it was 147 % of IL6R-BF648/IL6R-L.
The same measure, in the same setting: with B9 the figure was 137 % of IL6R-BF648/IL6R-L; with B10, 137 % of IL6R-BF648/IL6R-L.
Still for that read-out and setting: with B11 the figure was 121 % of IL6R-BF648/IL6R-L.
For B12, the relative binding activity is 138 % of IL6R-BF648/IL6R-L.
On to B13, for which the relative binding activity is 152 % of IL6R-BF648/IL6R-L.
On to B14, for which the relative binding activity was 177 % of IL6R-BF648/IL6R-L.
The same measure, in the same setting: with B15 the figure was 161 % of IL6R-BF648/IL6R-L; with B16, 171 % of IL6R-BF648/IL6R-L; with B17, 164 % of IL6R-BF648/IL6R-L.
With B18, the relative binding activity is 133 % of IL6R-BF648/IL6R-L.

The target of another experiment is T4, human FcγRIIIa type V (human, UniProt P08637 17-208, limits assumed).
T4 construct: Allotype V158 was used; also called FcgRIIIaV; FcγRIIIa(V)
T4 sequence (P08637 other isoform, or with tags, fused parts or gaps limits assumed): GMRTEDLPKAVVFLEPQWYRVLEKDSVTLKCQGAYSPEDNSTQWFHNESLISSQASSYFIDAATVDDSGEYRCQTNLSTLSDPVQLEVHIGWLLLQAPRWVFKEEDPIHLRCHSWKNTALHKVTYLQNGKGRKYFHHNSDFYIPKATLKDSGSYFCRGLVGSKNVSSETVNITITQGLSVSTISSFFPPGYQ
The experiment is described as above.
Method: as §1
As to B1, the relative binding activity is 123 % of IL6R-BF648/IL6R-L.
Still for that read-out and setting: with B2 the figure was 186 % of IL6R-BF648/IL6R-L; with B3, 204 % of IL6R-BF648/IL6R-L.
Same read-out and setting: with B4 the figure was 227 % of IL6R-BF648/IL6R-L; with B5, 100 % of IL6R-BF648/IL6R-L.
Same read-out and setting: in the case of B6 it was 186 % of IL6R-BF648/IL6R-L; in that of B7, 120 % of IL6R-BF648/IL6R-L; in that of B8, 136 % of IL6R-BF648/IL6R-L.
As for B9, the relative binding activity was 114 % of IL6R-BF648/IL6R-L.
As for B10, the relative binding activity is 158 % of IL6R-BF648/IL6R-L.
On the same count and under the same terms, in the case of B11 it was 128 % of IL6R-BF648/IL6R-L.
Same read-out and setting: with B12 the figure was 95 % of IL6R-BF648/IL6R-L; with B13, 153 % of IL6R-BF648/IL6R-L; with B14, 125 % of IL6R-BF648/IL6R-L.
Still for that read-out and setting: with B15 the figure was 122 % of IL6R-BF648/IL6R-L; with B16, 106 % of IL6R-BF648/IL6R-L.
Regarding B17, the relative binding activity is 113 % of IL6R-BF648/IL6R-L.
The same measure, in the same setting: in the case of B18 it was 114 % of IL6R-BF648/IL6R-L.

The next experiment deals with T3, human FcγRIIa type R. Described as above.
Method: as §1
Consider B1, for which the relative binding activity was 155 % of IL6R-BF648/IL6R-L.
Same read-out and setting: in the case of B2 it was 691 % of IL6R-BF648/IL6R-L; in that of B3, 757 % of IL6R-BF648/IL6R-L.
On the same count and under the same terms, with B4 the figure was 603 % of IL6R-BF648/IL6R-L; with B5, 602 % of IL6R-BF648/IL6R-L.
The same measure, in the same setting: with B6 the figure was 539 % of IL6R-BF648/IL6R-L; with B7, 191 % of IL6R-BF648/IL6R-L.
Turning to B8, the relative binding activity is 222 % of IL6R-BF648/IL6R-L.
Same read-out and setting: in the case of B9 it was 174 % of IL6R-BF648/IL6R-L; in that of B10, 163 % of IL6R-BF648/IL6R-L.
Still for that read-out and setting: with B11 the figure was 204 % of IL6R-BF648/IL6R-L; with B12, 111 % of IL6R-BF648/IL6R-L.
The same measure, in the same setting: with B13 the figure was 350 % of IL6R-BF648/IL6R-L; with B14, 570 % of IL6R-BF648/IL6R-L; with B15, 377 % of IL6R-BF648/IL6R-L.
B16: the relative binding activity was 436 % of IL6R-BF648/IL6R-L.
On the same count and under the same terms, with B17 the figure was 423 % of IL6R-BF648/IL6R-L; with B18, 238 % of IL6R-BF648/IL6R-L.

The next experiment concerns the target T5, human FcγRIa (human, UniProt P12314 16-292, limits assumed).
T5 construct: also called FcgRIa; CD64
Described as above.
Method: as §1
For B1, the relative binding activity was 72 % of IL6R-BF648/IL6R-L.
For the molecule B2, the relative binding activity was 57 % of IL6R-BF648/IL6R-L.
On to B3, for which the relative binding activity was 30 % of IL6R-BF648/IL6R-L.
The same measure, in the same setting: with B4 the figure was 33 % of IL6R-BF648/IL6R-L.
B5: the relative binding activity is 29 % of IL6R-BF648/IL6R-L.
Still for that read-out and setting: in the case of B6 it was 29 % of IL6R-BF648/IL6R-L; in that of B7, 91 % of IL6R-BF648/IL6R-L.
Same read-out and setting: with B8 the figure was 43 % of IL6R-BF648/IL6R-L.
For the molecule B9, the relative binding activity is 41 % of IL6R-BF648/IL6R-L.
On the same count and under the same terms, in the case of B10 it was 33 % of IL6R-BF648/IL6R-L.
Same read-out and setting: in the case of B11 it was 64 % of IL6R-BF648/IL6R-L.
The same measure, in the same setting: in the case of B12 it was 68 % of IL6R-BF648/IL6R-L; in that of B13, 41 % of IL6R-BF648/IL6R-L; in that of B14, 39 % of IL6R-BF648/IL6R-L.
For the molecule B15, the relative binding activity is 25 % of IL6R-BF648/IL6R-L.
On the same count and under the same terms, with B16 the figure was 96 % of IL6R-BF648/IL6R-L; with B17, 83 % of IL6R-BF648/IL6R-L; with B18, 86 % of IL6R-BF648/IL6R-L.
